Measurements: patent US20090221008A1 (Human Genome Sciences, published 2009)

Experiments:
[1] = target: T1, membrane-bound form of Neutrokine-alpha (human, UniProt Q9Y275 1-285); experiment: summary of Example 10
T1 construct: Endogenous type II membrane protein on THP-1 cells, monocytes and myeloid cell lines; also called Neutrokine-alpha on the surface of THP-1 cells; cell surface Neutrokine-alpha

[2] = target: T2, soluble form of Neutrokine-alpha (amino acids 134 to 285 of SEQ ID NO:2) (human, UniProt Q9Y275 134-285); experiment: summary of Example 10
T2 construct: also called rNeutrokine-alpha; soluble Neutrokine-alpha

[3] = target: T3, peptide comprising amino acid residues Val-227 to Asn-242 of SEQ ID NO:2 (human); experiment: epitope mapping with peptides
T3 peptide: VTLFRCIQNMPETLPN

Measured: binding result

T2 sequence (Q9Y275 134-285): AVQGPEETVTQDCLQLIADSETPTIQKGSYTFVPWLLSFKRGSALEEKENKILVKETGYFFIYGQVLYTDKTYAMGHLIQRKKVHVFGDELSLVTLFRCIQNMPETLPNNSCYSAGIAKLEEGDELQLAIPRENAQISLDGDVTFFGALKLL
T1 sequence (Q9Y275 whole entry): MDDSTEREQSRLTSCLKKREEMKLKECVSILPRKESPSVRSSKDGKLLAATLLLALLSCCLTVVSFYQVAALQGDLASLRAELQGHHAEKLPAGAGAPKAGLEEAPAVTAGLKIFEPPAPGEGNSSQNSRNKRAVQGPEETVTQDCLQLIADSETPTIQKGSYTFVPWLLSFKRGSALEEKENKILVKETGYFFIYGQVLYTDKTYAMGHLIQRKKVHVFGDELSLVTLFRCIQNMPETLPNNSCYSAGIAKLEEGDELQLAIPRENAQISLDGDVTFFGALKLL

B1: 15C10 (antibody, human IgG1, V domains shown)
VH: QVQLQQSGAELARPGASVKMSCRASGYTFTTYTMHWVKQRPGQGLEWIGYIIPRNTYTTFNQKFKNKATLTADKSSNTAYMQLSSLTSEDSAVYYCARHYGGGYWFFDVWGAGTTVTVSS
VL: ELVMTQTPASLAVSLGQRATISCRGSESVDSYGNSFMHWYQQKPGQPPKLLIYRASNLESGIPARFSGSGSRTDFTLTIYPVEADDVATYYCQQSNDDPMYTFGGGTKLEIKR
notes: Murine monoclonal antibody; hybridoma ATCC PTA-1158; A chimeric form with human IgG1/kappa was deposited as ATCC PTA-3794; also called anti-Neutrokine-alpha antibody 15C10
binds: all assays above
